Two proteins from PMC11258540 (Molecular Cell, 2024) can be followed below.

Where a chain is given by its changes, count along the chain named. In names and notes the source's numbering stands. Like-named read-outs stand apart in the source and are kept apart here.

Series [1] deals with the molecule itself. As to the kind of experiment: SEC.
Series [2] concerns the molecule itself.

B1: human PUS3 D118A, catalytically inactive variant (enzyme, UniProt Q9BZE2 1-481, looked up)
chain: MAYNDTDRNQTEKLLKRVRELEQEVQRLKKEQAKNKEDSNIRENSAGAGKTKRAFDFSAHGRRHVALRIAYMGWGYQGFASQENTNNTIEEKLFEALTKTRLVESRQTSNYHRCGRTAKGVSAFGQVISLDLRSQFPRGRDSEDFNVKEEANAAAEEIRYTHILNRVLPPDIRILAWAPVEPSFSARFSCLERTYRYFFPRADLDIVTMDYAAQKYVGTHDFRNLCKMDVANGVINFQRTILSAQVQLVGQSPGEGRWQEPFQLCQFEVTGQAFLYHQVRCMMAILFLIGQGMEKPEIIDELLNIEKNPQKPQYSMAVEFPLVLYDCKFENVKWIYDQEAQEFNITHLQQLWANHAVKTHMLYSMLQGLDTVPVPCGIGPKMDGMTEWGNVKPSVIKQTSAFVEGVKMRTYKPLMDRPKCQGLESRIQHFVRRGRIEHPHLFHEEETKAKRDCNDTLEEENTNLETPTKRVCVDTEIKSII
As to B1, the “stoichiometry N” value in series [1] was 2.

B2: human PUS3 H355T/T359A (enzyme, UniProt Q9BZE2 1-481, looked up)
chain: B1 chain with A118D, H355T, T359A
Consider B2, for which the “stoichiometry N” value in series [2] is 2.
